Read-outs that look alike come from different tables or passages of the source.
Columns and labels:
Assay in all cases: cell-based or functional assay
beta-klotho [1] = target: beta-klotho
beta-klotho [2] = target: beta-klotho; remark: listed apart in the source
beta-klotho [3] = target: beta-klotho; remark: listed apart in the source

EC50, ELK-luciferase assay (beta-klotho [1]) | other results | Binder
4.5 nM | – | PEGylated FGF21 mutant H125C (ligand, 20 kDa methoxy-PEG-maleimide on Cys 125) MHPIPDSSPLLQFGGQVRQRYLYTDDAQQTEAHLEIREDGTVGGAADQSPESLLQLKALKPGVIQILGVKTSRFLCQRPDGALYGSLHFDPEACSFRELLLEDGYNVYQSEAHGLPLHLPGNKSPCRDPAPRGPARFLPLPGLPPAPPEPPGILAPQPPDVGSSDPLSMVGPSQGRSPSYAS
12 nM | – | PEGylated FGF21 mutant G113C (ligand, 20 kDa methoxy-PEG-maleimide on Cys 113) MHPIPDSSPLLQFGGQVRQRYLYTDDAQQTEAHLEIREDGTVGGAADQSPESLLQLKALKPGVIQILGVKTSRFLCQRPDGALYGSLHFDPEACSFRELLLEDGYNVYQSEAHCLPLHLPGNKSPHRDPAPRGPARFLPLPGLPPAPPEPPGILAPQPPDVGSSDPLSMVGPSQGRSPSYAS
– | EC50, ELK-luciferase assay (beta-klotho [2]): 200 nM | dually PEGylated FGF21 mutant H125C, R175C (ligand, 20 kDa methoxy-PEG-maleimide on Cys 125 and on Cys 175) MHPIPDSSPLLQFGGQVRQRYLYTDDAQQTEAHLEIREDGTVGGAADQSPESLLQLKALKPGVIQILGVKTSRFLCQRPDGALYGSLHFDPEACSFRELLLEDGYNVYQSEAHGLPLHLPGNKSPCRDPAPRGPARFLPLPGLPPAPPEPPGILAPQPPDVGSSDPLSMVGPSQGCSPSYAS
– | EC50, ELK-luciferase assay (beta-klotho [2]): 318 nM | dually PEGylated FGF21 mutant K69C, R175C (ligand, 20 kDa methoxy-PEG-maleimide on Cys 69 and on Cys 175) MHPIPDSSPLLQFGGQVRQRYLYTDDAQQTEAHLEIREDGTVGGAADQSPESLLQLKALKPGVIQILGVCTSRFLCQRPDGALYGSLHFDPEACSFRELLLEDGYNVYQSEAHGLPLHLPGNKSPHRDPAPRGPARFLPLPGLPPAPPEPPGILAPQPPDVGSSDPLSMVGPSQGCSPSYAS
10 nM | – | PEGylated FGF21 mutant R126C (ligand, 20 kDa methoxy-PEG-maleimide on Cys 126) MHPIPDSSPLLQFGGQVRQRYLYTDDAQQTEAHLEIREDGTVGGAADQSPESLLQLKALKPGVIQILGVKTSRFLCQRPDGALYGSLHFDPEACSFRELLLEDGYNVYQSEAHGLPLHLPGNKSPHCDPAPRGPARFLPLPGLPPAPPEPPGILAPQPPDVGSSDPLSMVGPSQGRSPSYAS
– | EC50, ELK-luciferase assay (beta-klotho [2]): 180 nM | dually PEGylated FGF21 mutant K69C, R77C (ligand, 20 kDa methoxy-PEG-maleimide on Cys 69 and on Cys 77) MHPIPDSSPLLQFGGQVRQRYLYTDDAQQTEAHLEIREDGTVGGAADQSPESLLQLKALKPGVIQILGVCTSRFLCQCPDGALYGSLHFDPEACSFRELLLEDGYNVYQSEAHGLPLHLPGNKSPHRDPAPRGPARFLPLPGLPPAPPEPPGILAPQPPDVGSSDPLSMVGPSQGRSPSYAS
– | In Vitro Activity EC50, ELK-luciferase assay (beta-klotho [3]): 215 nM | FGF21(K56R/K69R/K122R), 2 x 20k PEG (ligand, two 20k PEG (amine-specific): N-terminus and the one remaining lysine (Lys 59)) MHPIPDSSPLLQFGGQVRQRYLYTDDAQQTEAHLEIREDGTVGGAADQSPESLLQLRALKPGVIQILGVRTSRFLCQRPDGALYGSLHFDPEACSFRELLLEDGYNVYQSEAHGLPLHLPGNRSPHRDPAPRGPARFLPLPGLPPAPPEPPGILAPQPPDVGSSDPLSMVGPSQGRSPSYAS
13.1 nM | – | PEGylated FGF21 mutant D38C (ligand, 20 kDa methoxy-PEG-maleimide on Cys 38) MHPIPDSSPLLQFGGQVRQRYLYTDDAQQTEAHLEIRECGTVGGAADQSPESLLQLKALKPGVIQILGVKTSRFLCQRPDGALYGSLHFDPEACSFRELLLEDGYNVYQSEAHGLPLHLPGNKSPHRDPAPRGPARFLPLPGLPPAPPEPPGILAPQPPDVGSSDPLSMVGPSQGRSPSYAS
– | In Vitro Activity EC50, ELK-luciferase assay (beta-klotho [3]): 38 nM | FGF21(K all R, R126K), 2 x 20k PEG (ligand, two 20k PEG (amine-specific): N-terminus and Lys 126) MHPIPDSSPLLQFGGQVRQRYLYTDDAQQTEAHLEIREDGTVGGAADQSPESLLQLRALRPGVIQILGVRTSRFLCQRPDGALYGSLHFDPEACSFRELLLEDGYNVYQSEAHGLPLHLPGNRSPHKDPAPRGPARFLPLPGLPPAPPEPPGILAPQPPDVGSSDPLSMVGPSQGRSPSYAS
– | In Vitro Activity EC50, ELK-luciferase assay (beta-klotho [3]): 499 nM | FGF21(K59R/K69R/K122R), 2 x 20k PEG (ligand, two 20k PEG (amine-specific): N-terminus and the one remaining lysine (Lys 56)) MHPIPDSSPLLQFGGQVRQRYLYTDDAQQTEAHLEIREDGTVGGAADQSPESLLQLKALRPGVIQILGVRTSRFLCQRPDGALYGSLHFDPEACSFRELLLEDGYNVYQSEAHGLPLHLPGNRSPHRDPAPRGPARFLPLPGLPPAPPEPPGILAPQPPDVGSSDPLSMVGPSQGRSPSYAS
– | In Vitro Activity EC50, ELK-luciferase assay (beta-klotho [3]): 73 nM | FGF21(all K to all R, R36K), 2 x 20k PEG (ligand, two 20k PEG (amine-specific): N-terminus and Lys 36) MHPIPDSSPLLQFGGQVRQRYLYTDDAQQTEAHLEIKEDGTVGGAADQSPESLLQLRALRPGVIQILGVRTSRFLCQRPDGALYGSLHFDPEACSFRELLLEDGYNVYQSEAHGLPLHLPGNRSPHRDPAPRGPARFLPLPGLPPAPPEPPGILAPQPPDVGSSDPLSMVGPSQGRSPSYAS
7.9 nM | – | PEGylated FGF21 mutant R175C (ligand, 20 kDa methoxy-PEG-maleimide on Cys 175) MHPIPDSSPLLQFGGQVRQRYLYTDDAQQTEAHLEIREDGTVGGAADQSPESLLQLKALKPGVIQILGVKTSRFLCQRPDGALYGSLHFDPEACSFRELLLEDGYNVYQSEAHGLPLHLPGNKSPHRDPAPRGPARFLPLPGLPPAPPEPPGILAPQPPDVGSSDPLSMVGPSQGCSPSYAS
– | In Vitro Activity EC50, ELK-luciferase assay (beta-klotho [3]): 200 nM | Native FGF21 (random), 2 x 20k PEG (ligand, two 20k PEG at random sites (sites not given)) MHPIPDSSPLLQFGGQVRQRYLYTDDAQQTEAHLEIREDGTVGGAADQSPESLLQLKALKPGVIQILGVKTSRFLCQRPDGALYGSLHFDPEACSFRELLLEDGYNVYQSEAHGLPLHLPGNKSPHRDPAPRGPARFLPLPGLPPAPPEPPGILAPQPPDVGSSDPLSMVGPSQGRSPSYAS
– | In Vitro Activity EC50, ELK-luciferase assay (beta-klotho [3]): 175 nM | FGF21(all K to all R, R77K), 2 x 20k PEG (ligand, two 20k PEG (amine-specific): N-terminus and Lys 77) MHPIPDSSPLLQFGGQVRQRYLYTDDAQQTEAHLEIREDGTVGGAADQSPESLLQLRALRPGVIQILGVRTSRFLCQKPDGALYGSLHFDPEACSFRELLLEDGYNVYQSEAHGLPLHLPGNRSPHRDPAPRGPARFLPLPGLPPAPPEPPGILAPQPPDVGSSDPLSMVGPSQGRSPSYAS
9.2 nM | – | PEGylated FGF21 mutant N121C (ligand, 20 kDa methoxy-PEG-maleimide on Cys 121) MHPIPDSSPLLQFGGQVRQRYLYTDDAQQTEAHLEIREDGTVGGAADQSPESLLQLKALKPGVIQILGVKTSRFLCQRPDGALYGSLHFDPEACSFRELLLEDGYNVYQSEAHGLPLHLPGCKSPHRDPAPRGPARFLPLPGLPPAPPEPPGILAPQPPDVGSSDPLSMVGPSQGRSPSYAS
5.3 nM | – | PEGylated FGF21 mutant K69C (ligand, 20 kDa methoxy-PEG-maleimide on Cys 69) MHPIPDSSPLLQFGGQVRQRYLYTDDAQQTEAHLEIREDGTVGGAADQSPESLLQLKALKPGVIQILGVCTSRFLCQRPDGALYGSLHFDPEACSFRELLLEDGYNVYQSEAHGLPLHLPGNKSPHRDPAPRGPARFLPLPGLPPAPPEPPGILAPQPPDVGSSDPLSMVGPSQGRSPSYAS
20.4 nM | – | PEGylated FGF21 mutant D79C (ligand, 20 kDa methoxy-PEG-maleimide on Cys 79) MHPIPDSSPLLQFGGQVRQRYLYTDDAQQTEAHLEIREDGTVGGAADQSPESLLQLKALKPGVIQILGVKTSRFLCQRPCGALYGSLHFDPEACSFRELLLEDGYNVYQSEAHGLPLHLPGNKSPHRDPAPRGPARFLPLPGLPPAPPEPPGILAPQPPDVGSSDPLSMVGPSQGRSPSYAS
27.8 nM | – | PEGylated FGF21 mutant D46C (ligand, 20 kDa methoxy-PEG-maleimide on Cys 46) MHPIPDSSPLLQFGGQVRQRYLYTDDAQQTEAHLEIREDGTVGGAACQSPESLLQLKALKPGVIQILGVKTSRFLCQRPDGALYGSLHFDPEACSFRELLLEDGYNVYQSEAHGLPLHLPGNKSPHRDPAPRGPARFLPLPGLPPAPPEPPGILAPQPPDVGSSDPLSMVGPSQGRSPSYAS
287 nM | – | PEGylated FGF21 mutant Y179C (ligand, 20 kDa methoxy-PEG-maleimide on Cys 179) MHPIPDSSPLLQFGGQVRQRYLYTDDAQQTEAHLEIREDGTVGGAADQSPESLLQLKALKPGVIQILGVKTSRFLCQRPDGALYGSLHFDPEACSFRELLLEDGYNVYQSEAHGLPLHLPGNKSPHRDPAPRGPARFLPLPGLPPAPPEPPGILAPQPPDVGSSDPLSMVGPSQGRSPSCAS
6.9 nM | – | PEGylated FGF21 mutant E37C (ligand, 20 kDa methoxy-PEG-maleimide on Cys 37) MHPIPDSSPLLQFGGQVRQRYLYTDDAQQTEAHLEIRCDGTVGGAADQSPESLLQLKALKPGVIQILGVKTSRFLCQRPDGALYGSLHFDPEACSFRELLLEDGYNVYQSEAHGLPLHLPGNKSPHRDPAPRGPARFLPLPGLPPAPPEPPGILAPQPPDVGSSDPLSMVGPSQGRSPSYAS
– | In Vitro Activity EC50, ELK-luciferase assay (beta-klotho [3]): 500 nM | FGF21(K56/59/69R), 2 x 20k PEG (ligand, two 20k PEG (amine-specific): N-terminus and the one remaining lysine (Lys 122)) MHPIPDSSPLLQFGGQVRQRYLYTDDAQQTEAHLEIREDGTVGGAADQSPESLLQLRALRPGVIQILGVRTSRFLCQRPDGALYGSLHFDPEACSFRELLLEDGYNVYQSEAHGLPLHLPGNKSPHRDPAPRGPARFLPLPGLPPAPPEPPGILAPQPPDVGSSDPLSMVGPSQGRSPSYAS
8.3 nM | – | PEGylated FGF21 mutant E91C (ligand, 20 kDa methoxy-PEG-maleimide on Cys 91) MHPIPDSSPLLQFGGQVRQRYLYTDDAQQTEAHLEIREDGTVGGAADQSPESLLQLKALKPGVIQILGVKTSRFLCQRPDGALYGSLHFDPCACSFRELLLEDGYNVYQSEAHGLPLHLPGNKSPHRDPAPRGPARFLPLPGLPPAPPEPPGILAPQPPDVGSSDPLSMVGPSQGRSPSYAS
– | EC50, ELK-luciferase assay (beta-klotho [2]): 163 nM | dually PEGylated FGF21 mutant E37C, G170C (ligand, 20 kDa methoxy-PEG-maleimide on Cys 37 and on Cys 170) MHPIPDSSPLLQFGGQVRQRYLYTDDAQQTEAHLEIRCDGTVGGAADQSPESLLQLKALKPGVIQILGVKTSRFLCQRPDGALYGSLHFDPEACSFRELLLEDGYNVYQSEAHGLPLHLPGNKSPHRDPAPRGPARFLPLPGLPPAPPEPPGILAPQPPDVGSSDPLSMVCPSQGRSPSYAS
6 nM | – | PEGylated FGF21 mutant G120C (ligand, 20 kDa methoxy-PEG-maleimide on Cys 120) MHPIPDSSPLLQFGGQVRQRYLYTDDAQQTEAHLEIREDGTVGGAADQSPESLLQLKALKPGVIQILGVKTSRFLCQRPDGALYGSLHFDPEACSFRELLLEDGYNVYQSEAHGLPLHLPCNKSPHRDPAPRGPARFLPLPGLPPAPPEPPGILAPQPPDVGSSDPLSMVGPSQGRSPSYAS
4.9 nM | – | PEGylated FGF21 mutant R77C (ligand, 20 kDa methoxy-PEG-maleimide on Cys 77) MHPIPDSSPLLQFGGQVRQRYLYTDDAQQTEAHLEIREDGTVGGAADQSPESLLQLKALKPGVIQILGVKTSRFLCQCPDGALYGSLHFDPEACSFRELLLEDGYNVYQSEAHGLPLHLPGNKSPHRDPAPRGPARFLPLPGLPPAPPEPPGILAPQPPDVGSSDPLSMVGPSQGRSPSYAS

— patent US20160244497A1 (Amgen, published 2016)
